In patent US20140234868A1, “USE FOR GLYCOLIPOPROTEIN GINTONIN, ISOLATED AND IDENTIFIED FROM GINSENG, AS A NATURAL MEDICAL-PLANT DERIVED LIGAND” (KONKUK UNIVERSITY INDUSTRIAL COOPERATION CORP., priority 2011, published 2014):

Tests used:
[1] = biological target: LPA2 receptor (Homo sapiens, UniProt Q9HBW0); assay: Intracellular free Ca2+ (Fura-2AM) in LPA2-expressing B103 cells; type: cell-based; set-up: host or cells: B103 rat neuroblastoma cells
Description: LPA family receptors are endogenous to cells of most organs. B103 rat neuroblastoma cells, known as LPA receptor-null cells (Valentine et al., Biochim Biophys Acta 1780. 597-605) were transiently transfected with a plasmid (vector) carrying one of genes coding for LPA1(edg-2), LPA2(edg-4), LPA3(edg-7), LPA4, LPA5 and LPA6 receptors or a plasmid carrying none of them (empty vector). Two or three days after transfection, the cells are suspended, and made permeable. Then, the permeable cells are treated with Fura-2AM, a fluorescent dye binding to calcium, and then with gintonin, followed by spectrofluorephotometry to examine whether gintonin induces an increase in intracellular free Ca^2+ level.
(1) preparing large quantities of plasmids carrying respective LPA family receptor genes and an empty plasmid carrying none of them through amplification and purification (maxi-preparation); (2) verifying the expression of LPA receptors wherein B103 cells are transfected with haematoglutin (HA)-tagged LPA receptors, and then subjected to Western blotting analysis using an anti-HA primary antibody and a horseradish peroxidase (HRP)-conjugated secondary antibody to develop a color; (3) verifying the expression of LPA receptors wherein B1-3 cells are transfected with haematoglutin (HA)-tagged LPA receptors, and then subjected to confocal laser microscopy using an anti-HA antibody and a fluorescence dye Cy3-conjugated secondary antibody; (4) transfecting the empty plasmid and each of the plasmids carrying LPA family receptor genes into B103 cells; (5) treating the transfected B103 cells with trypsin (0.05% trypsin with EDTA, w/v) 2-3 days post-transfection, to give a cell suspension; (6) culturing the suspended B103 cells with Fura-2AM (2.5 μM); and (7) treating the suspended B103 cells with gintonin and quantifying a change in intracellular free Ca^2+ level in a cuvette by spectrofluorephotometry using Fura-2AM.
Human LPA (lysophosphatidic acid) receptor subtypes, orphan GPCRs (G protein coupled receptors) and plasmids carrying GPCRs were purchased from Missouri S&T resource Center (www.cDNA.org).
The transient transfection of LPA receptor subtypes was carried out with the aid of Lipofectamine 2000 of Invitrogen. A plasmid (10.8 μg) carrying each LPA receptor (LPA1, LPA2, LPA3, LPA4, LPA5, and LPA6) was transfected into B103 cells grown in 10-cm dishes, and incubated for 2 days prior for use in experiments.
In this Example, gintonin, or ginsenoside Rb1 or Rg1 was examined for its ability to induce a transient increase of [Ca^2+]i in Fura-2AM-loaded B103 cells which were transfected with LPA receptors and in Fura-2AM-loaded B103 cells which were not transfected with LPA receptors. […]

[2] = tested on: rat adrenal gland; assay: Catecholamine secretion from perfused rat adrenal gland
Procedure: Male rats (Sprague-Dawley, each weighing 200 to 300 g) was anesthetized by an to intraperitoneal injection of thiopental sodium (50 mg/kgm), and the adrenal gland was excised from the rats according to the method of Wakade and Woo et al. (Wakade, J Physiol. 313, 463-480, 1981; Woo et al., Korean J Physiol Pharmacol., 12, 155-164, 2008).
Briefly, a cannula was inserted so as to perfuse the adrenal gland, as illustrated in FIG. 18. During the cannula insertion, heparin (400 IU/ml) was infused into the vena cava in order to prevent blood coagulation. Then, the adrenal gland was isolated from the body, and transferred to a leucite chamber which was kept at 37±1° C.
The adrenal gland was perfused at a rate of 0.33 ml/min with the aid of a peristaltic pump (ISCO® pump, WIZ Co. U.S.A.). The perfusion solution was a Krebs-bicarbonate solution: (mM) NaCl, 118.4; KCl, 4.7; CaCl2, 2.5; MgCl2, 1.18; NaHCO3, 25; KH2PO4, 1.2; glucose, 11.7.
The perfusion solution was continuously aerated with 95% O2+5% CO2 gas, and was maintained to have pH 7.4-7.5. In addition, the perfusion solution was supplemented with EDTA ([…]) and ascorbic acid ([…]) to prevent the oxidation of catecholamines (Woo et al., Korean J Physiol Pharmacol., 12, 155-164, 2008).
Gintonin (1˜10 μg/ml) or cyclopiazonic acid (10 μM) was applied by perfusion for 4 min while acetylcholine (5.32 mM) was infused at a dose of 50 μl using a three-way stopcock.
Prior to treatment with a material stimulating catecholamine secretion, the adrenal gland was left until the secretion of catecholamine in the absence of stimuli reached a constant level, that is, a background or basal level, which typically took 5˜10 min. Then, the adrenal gland was perfused with gintonin or other drugs, and perfusates effluent from the adrenal gland were collected at regular intervals of 4 min, and the amount of catecholamines released by drug stimulation was calculated by subtracting the background or basal level from measurements (Woo et al., Korean J Physiol Pharmacol., 12, 155-164, 2008).
In order to examine the effect of gintonin on the spontaneous secretion of catecholamine and on the stimulus-induced secretion of catecholamine, the adrenal gland was perfused with a Krebs solution containing gintonin alone or in combination with other drugs, after which the perfusates were collected until the amount of secreted catecholamine reached the background level. The collected adrenal perfusates were stored in tubes maintained at 4° C.
Catecholamine in the perfusates was quantified using a fluorospectrophotometer (Kontron Co., Milano, Italy) according to the methods of Anton and Sayre, and Lim. In this regard, each perfusate amounted to 0.2 ml (Woo et al., Korean J Physiol Pharmacol., 12, 155-164, 2008).

Chain of LPA2 receptor (Q9HBW0 whole entry): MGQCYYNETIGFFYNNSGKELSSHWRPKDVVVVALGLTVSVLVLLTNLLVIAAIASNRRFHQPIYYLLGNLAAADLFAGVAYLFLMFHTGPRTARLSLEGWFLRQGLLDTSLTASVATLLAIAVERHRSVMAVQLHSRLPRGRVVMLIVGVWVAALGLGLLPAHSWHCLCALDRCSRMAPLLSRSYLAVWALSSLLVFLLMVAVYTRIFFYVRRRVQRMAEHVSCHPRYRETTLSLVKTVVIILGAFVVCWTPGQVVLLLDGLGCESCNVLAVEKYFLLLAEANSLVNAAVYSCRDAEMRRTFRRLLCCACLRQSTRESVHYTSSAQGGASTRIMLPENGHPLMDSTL

B1: gintonin: ginseng-derived glycolipoprotein; structural protein of ginseng major latex-like protein (MLP151) and ribonuclease-like storage proteins; crude gintonin used in tests (protein)
chain 1: MGLTGKLICQTGIKSDGDVFHELFGTRPHHVPNITPANIQGCDLHEGEFGKVGSVVIWNYSIDGNAMIAKEEIVAIDEEDKSVTFKVVEGHLFEEFKSIVFSVHVDTKGEDNLVTWSIDYEKLNESVKDPTSYLDFLLSVTRDIEAHHLPK
chain 2: RSDYPWAMFALRLQWPAGFCEVNNACDTKSLLNTFTIHGLYPYNAKGTPALYCDGTAFDVNSVSDFLAEMHLAWPSHETNTEDIQFWEHEWKKHGRCSEALLKQTDYFRTALAFRKAFDIVGLLNQEGIYPNNDLYRPKMIKEAIKKHLNAVPEIDFTKNENSEYVLTDINVCVNQQATRFVDCPTDDATDDYRLKFVRLPSKMKFADPRTNSII
EC50 ([1]; LPA2 receptor, B103 cells, read-out: EC50, LPA receptor-mediated intracellular calcium increase): 4 ± 0.4 pM | increase in intracellular calcium level ([1]; gintonin 1 μg/ml, LPA2-expressing B103 cells): 208.3 ± 13.0 µM | catecholamine secretion after acetylcholine ([2]; gintonin 1 μg/ml, pre-treatment with 5.32 mM acetylcholine): incapacitated the effect | catecholamine secretion after acetylcholine ([2]; gintonin 3 μg/ml, 5.32 mM acetylcholine): continually promote the secretion of catechlamine | catecholamine secretion after acetylcholine ([2]; gintonin 10 μg/ml, 5.32 mM acetylcholine): stimulates the secretion of catecholamine in the early stage, but could not induce the secretion since then | catecholamine secretion ([2]; gintonin 1~10 μg/ml, perfusion at 15-min intervals): continually secrete catecholamine in a dose-dependent manner
